{
  "source": "paper PMC10273338",
  "about": "“HspB8 interacts with BAG3 in a “native‐like” conformation forming a complex that displays chaperone‐like activity” (Protein Science : A Publication of the Protein Society, 2023)",
  "binders": {"B1": {"name": "Josephin domain of ataxin-3 (domain or fragment, UniProt P54252 1-180, looked up)", "chain": "MESIFHEKQEGSLCAQHCLNNLLQGEYFSPVELSSIAHQLDEEERMRMAEGGVTSEDYRTFLQQPSGNMDDSGFFSIQVISNALKVWGLELILFNSPEYQRLRIDPINERSFICNYKEHWFTVRKLGKQWFNLNSLLTGPELISDTYLALFLAQLQQEGYSIFVVKGDLPDCEADQLLQM", "notes": "cloned in pET21-a; likely residues 1-182 of human ataxin-3 (surmised). pET21-a may add a C-terminal His6 tag; also called JD; source: E. coli BL21 Tuner (DE3) pLacI, purified as previously described (Bonanomi et al., 2015)"}, "B2": {"name": "HspB8 (natural protein, UniProt Q9UJY1 1-196, looked up)", "chain": "MADGQMPFSCHYPSRLRRDPFRDSPLSSRLLDDGFGMDPFPDDLTASWPDWALPRLSSAWPGTLRSGMVPRGPTATARFGVPAEGRTPPPFPGEPWKVCVNVHSFKPEELMVKTKDGYVEVSGKHEEKQQEGGIVSKNFTKKIQLPAEVDPVTVFASLSPEGLLIIEAPQVPPYSTFGESSFNNELPQDSQEVTCT", "notes": "HspB8, small heat shock protein; gene in pGEX-6P-1, provided by Serena Carra; source: E. coli BL21-CodonPlus(DE3)-RIL, purified (Glutathione Sepharose, PreScission cleavage on the resin, Superose 12 SEC); not shown: GST, N-terminal, cleaved"}, "B3": {"name": "HspB8-BAG3 complex (complex)", "chain 1": "MADGQMPFSCHYPSRLRRDPFRDSPLSSRLLDDGFGMDPFPDDLTASWPDWALPRLSSAWPGTLRSGMVPRGPTATARFGVPAEGRTPPPFPGEPWKVCVNVHSFKPEELMVKTKDGYVEVSGKHEEKQQEGGIVSKNFTKKIQLPAEVDPVTVFASLSPEGLLIIEAPQVPPYSTFGESSFNNELPQDSQEVTCT", "chain 2": "not shown"}},
  "key": {"HspB8": {"target": "B2", "experiment": "SPR; BIACORE X100; JD amine-coupled to a CM5 chip (3000 RU); single cycle kinetics at 25°C, 10 uL/min, 10 mM HEPES pH 7.4, 150 mM NaCl, 3 mM EDTA, 0.005% P20; Langmuir 1:1 fit, complex assumed to bind JD 1:1", "settings": "both partners purified"}, "[1]": {"target": "T1, BAG3 (Bcl-2 associated athanogene protein 3) (human, UniProt O95817 1-575)", "T1 construct": "BAG3, human; no removal of the tag is described; source: E. coli M15 (pREP4), purified (HisPur Cobalt resin, Superose 12 SEC)", "T1 sequence (O95817 whole entry)": "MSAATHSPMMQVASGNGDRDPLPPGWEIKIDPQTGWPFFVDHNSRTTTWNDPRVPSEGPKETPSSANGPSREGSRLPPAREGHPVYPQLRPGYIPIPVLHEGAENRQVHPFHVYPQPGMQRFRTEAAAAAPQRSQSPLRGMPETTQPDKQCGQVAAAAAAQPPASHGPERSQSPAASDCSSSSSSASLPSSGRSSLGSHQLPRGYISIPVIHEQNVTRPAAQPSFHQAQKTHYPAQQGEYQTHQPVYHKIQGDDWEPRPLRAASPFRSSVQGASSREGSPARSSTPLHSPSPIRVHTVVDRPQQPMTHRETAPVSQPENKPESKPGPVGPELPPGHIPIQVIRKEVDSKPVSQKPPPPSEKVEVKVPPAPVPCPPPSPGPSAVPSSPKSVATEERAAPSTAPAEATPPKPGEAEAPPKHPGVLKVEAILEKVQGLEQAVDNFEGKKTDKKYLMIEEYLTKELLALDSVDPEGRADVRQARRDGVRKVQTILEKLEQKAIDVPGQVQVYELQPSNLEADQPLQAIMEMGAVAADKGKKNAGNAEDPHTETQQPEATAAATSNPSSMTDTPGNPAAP", "experiment": "SPR; BIACORE X100; JD amine-coupled to a CM5 chip (3000 RU); single cycle kinetics at 25°C, 10 uL/min, 10 mM HEPES pH 7.4, 150 mM NaCl, 3 mM EDTA, 0.005% P20; Langmuir 1:1 fit, complex assumed to bind JD 1:1", "settings": "both partners purified"}, "HspB8-BAG3 complex": {"target": "B3", "experiment": "SPR; BIACORE X100; JD amine-coupled to a CM5 chip (3000 RU); single cycle kinetics at 25°C, 10 uL/min, 10 mM HEPES pH 7.4, 150 mM NaCl, 3 mM EDTA, 0.005% P20; Langmuir 1:1 fit, complex assumed to bind JD 1:1", "settings": "both partners purified"}, "[2]": {"target": "B1", "experiment": "cell-based or functional assay"}, "[3]": {"target": "T1, BAG3 (Bcl-2 associated athanogene …)", "experiment": "SPR; BIACORE X; BAG3 amine-coupled to a CM5 chip (3400 RU); running buffer 10 mM HEPES pH 7.4, 150 mM NaCl, 3 mM EDTA, 0.005% P20; 10 uL/min; Langmuir 1:1 fit", "settings": "both partners purified"}, "[4]": {"target": "T1, BAG3 (Bcl-2 associated athanogene …)", "experiment": "SPR; BIACORE X; HspB8 amine-coupled to a CM5 chip (7400 RU); running buffer 10 mM HEPES pH 7.4, 150 mM NaCl, 3 mM EDTA, 0.005% P20; 10 uL/min; Langmuir 1:1 fit", "settings": "both partners purified"}},
  "data": [
    {"binder": "B1", "values": [
      {"measurement": "Ka", "setting": "HspB8", "result": 120000, "unit": "M⁻¹"},
      {"measurement": "Kd", "setting": "HspB8", "result": 8100, "unit": "nM"},
      {"measurement": "koff", "setting": "HspB8", "result": 0.0006, "unit": "s⁻¹"},
      {"measurement": "kon", "setting": "HspB8", "result": 74, "unit": "M⁻¹ s⁻¹"},
      {"measurement": "Ka", "setting": "[1]", "result": 190000, "unit": "M⁻¹"},
      {"measurement": "Kd", "setting": "[1]", "result": 5400, "unit": "nM"},
      {"measurement": "koff", "setting": "[1]", "result": 0.0014, "unit": "s⁻¹"},
      {"measurement": "kon", "setting": "[1]", "result": 260, "unit": "M⁻¹ s⁻¹"},
      {"measurement": "Ka", "setting": "HspB8-BAG3 complex", "result": "1.4e+07", "unit": "M⁻¹"},
      {"measurement": "Kd", "setting": "HspB8-BAG3 complex", "result": 73, "unit": "nM"},
      {"measurement": "koff", "setting": "HspB8-BAG3 complex", "result": 0.00024, "unit": "s⁻¹"},
      {"measurement": "kon", "setting": "HspB8-BAG3 complex", "result": 3300, "unit": "M⁻¹ s⁻¹"}
    ]},
    {"binder": "B2", "values": [
      {"measurement": "inhibition of JD aggregation (ThT fluorescence, 10 uM JD at 37°C with HspB8 at different molar ratios; 20% at JD:HspB8 1:0.093, maximum at 4:1)", "setting": "[2]", "result": 35, "unit": "%"},
      {"measurement": "Ka", "setting": "[3]", "result": "2.2e+08", "unit": "M⁻¹"},
      {"measurement": "Kd", "setting": "[3]", "result": 4.5, "unit": "nM"},
      {"measurement": "koff", "setting": "[3]", "result": 0.00056, "unit": "s⁻¹"},
      {"measurement": "kon", "setting": "[3]", "result": 130000, "unit": "M⁻¹ s⁻¹"},
      {"measurement": "Ka", "setting": "[4]", "result": "4.2e+08", "unit": "M⁻¹"},
      {"measurement": "Kd", "setting": "[4]", "result": 2.4, "unit": "nM"},
      {"measurement": "koff", "setting": "[4]", "result": 0.00022, "unit": "s⁻¹"},
      {"measurement": "kon", "setting": "[4]", "result": 93000, "unit": "M⁻¹ s⁻¹"}
    ]},
    {"binder": "B3", "values": [
      {"measurement": "inhibition of JD aggregation (ThT fluorescence, 10 uM JD at 37°C with the HspB8-BAG3 complex at different ratios; maximum at JD:complex 1:0.5)", "setting": "[2]", "result": 40, "unit": "%"}
    ]}
  ]
}
